The source of these data is US20060177829A1 (NEW YORK UNIVERSITY, published 2006).

In assay [1] the target is T1, Flag-tagged β-TrCP1 (Fbw1a) (human, UniProt Q9Y297 1-605).
T1 construct: F-box protein expressed from a Flag-tagged construct in HeLa cells and pulled down with anti-Flag resin; also called beta-TrCP1; Flag-beta-TrCP1; not shown: Flag tag
T1 sequence: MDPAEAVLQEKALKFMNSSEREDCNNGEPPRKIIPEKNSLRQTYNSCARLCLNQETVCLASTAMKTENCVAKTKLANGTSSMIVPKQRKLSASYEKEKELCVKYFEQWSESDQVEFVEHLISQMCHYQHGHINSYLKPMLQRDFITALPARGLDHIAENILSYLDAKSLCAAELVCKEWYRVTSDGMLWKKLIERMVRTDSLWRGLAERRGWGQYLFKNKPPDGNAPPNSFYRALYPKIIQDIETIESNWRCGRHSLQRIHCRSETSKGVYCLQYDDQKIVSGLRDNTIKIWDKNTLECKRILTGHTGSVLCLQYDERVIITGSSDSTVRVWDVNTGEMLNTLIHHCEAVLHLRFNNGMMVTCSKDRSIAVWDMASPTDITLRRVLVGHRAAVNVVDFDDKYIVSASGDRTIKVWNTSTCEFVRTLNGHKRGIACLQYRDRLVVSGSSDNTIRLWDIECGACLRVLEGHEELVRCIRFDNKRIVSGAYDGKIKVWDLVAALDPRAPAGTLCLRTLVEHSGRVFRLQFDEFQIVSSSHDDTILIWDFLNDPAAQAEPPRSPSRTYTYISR
Kind of assay: anti-Flag immunoprecipitation from transfected HeLa cells, blot for Cdc25A. An excerpt: (§1) FIG. 1. Cdc25A interacts with beta-TrCP1 and beta-TrCP2 in vivo (I). HeLa cells were transfected with the indicated Flag-tagged F-box protein constructs. F-box proteins were immunoprecipitated from extracts with an anti-Flag resin and immunocomplexes were blotted with Cul1, Cdc25A and Flag specific antibodies.

Assay [2] has as its target T2, Flag-tagged β-TrCP2 (Fbw1b) (human, UniProt Q9UKB1 1-542).
T2 construct: F-box protein expressed from a Flag-tagged construct in HeLa cells; also called beta-TrCP2; not shown: Flag tag
T2 sequence: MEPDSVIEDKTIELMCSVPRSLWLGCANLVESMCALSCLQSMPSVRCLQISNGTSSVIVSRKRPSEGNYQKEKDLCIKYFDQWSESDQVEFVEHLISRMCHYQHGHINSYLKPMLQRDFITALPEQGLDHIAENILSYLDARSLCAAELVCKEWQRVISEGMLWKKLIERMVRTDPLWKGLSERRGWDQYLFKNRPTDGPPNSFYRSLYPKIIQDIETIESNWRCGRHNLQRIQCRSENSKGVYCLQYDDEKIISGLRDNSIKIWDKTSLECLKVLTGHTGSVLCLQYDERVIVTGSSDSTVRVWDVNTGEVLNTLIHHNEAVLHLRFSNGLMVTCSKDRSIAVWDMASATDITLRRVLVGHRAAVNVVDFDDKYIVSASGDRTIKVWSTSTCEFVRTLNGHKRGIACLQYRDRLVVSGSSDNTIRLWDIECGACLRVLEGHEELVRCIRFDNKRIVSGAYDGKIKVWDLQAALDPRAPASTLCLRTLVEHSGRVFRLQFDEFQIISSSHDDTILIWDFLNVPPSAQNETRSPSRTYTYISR
Described as above.
Text: as §1

The target of the next assay is T3, Flag-tagged Skp2 (human, UniProt Q13309 1-424, limits assumed).
T3 construct: not shown: Flag tag
T3 sequence (Q13309 whole entry): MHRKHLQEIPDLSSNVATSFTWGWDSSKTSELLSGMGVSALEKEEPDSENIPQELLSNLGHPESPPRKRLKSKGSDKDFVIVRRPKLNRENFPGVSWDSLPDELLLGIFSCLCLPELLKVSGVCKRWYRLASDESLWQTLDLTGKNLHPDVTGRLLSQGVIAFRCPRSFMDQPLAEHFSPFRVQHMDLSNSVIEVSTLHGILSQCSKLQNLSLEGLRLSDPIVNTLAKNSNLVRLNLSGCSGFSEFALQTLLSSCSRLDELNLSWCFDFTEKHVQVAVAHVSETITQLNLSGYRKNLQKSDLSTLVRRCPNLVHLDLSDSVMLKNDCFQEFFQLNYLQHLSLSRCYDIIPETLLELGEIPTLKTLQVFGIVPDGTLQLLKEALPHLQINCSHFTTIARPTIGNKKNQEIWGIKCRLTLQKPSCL
Description: anti-Flag immunoprecipitation from HeLa cells co-transfected with His-Cdc25A, blot for Cdc25A.

The target in assay [3] is T4, Flag-tagged Fbw7 (form not stated, FIG. 2) (human, UniProt Q969H0 1-707, limits assumed).
T4 construct: The Fbw7 of the parallel experiment with overexpressed Cdc25A; not shown: Flag tag
T4 sequence (Q969H0 whole entry): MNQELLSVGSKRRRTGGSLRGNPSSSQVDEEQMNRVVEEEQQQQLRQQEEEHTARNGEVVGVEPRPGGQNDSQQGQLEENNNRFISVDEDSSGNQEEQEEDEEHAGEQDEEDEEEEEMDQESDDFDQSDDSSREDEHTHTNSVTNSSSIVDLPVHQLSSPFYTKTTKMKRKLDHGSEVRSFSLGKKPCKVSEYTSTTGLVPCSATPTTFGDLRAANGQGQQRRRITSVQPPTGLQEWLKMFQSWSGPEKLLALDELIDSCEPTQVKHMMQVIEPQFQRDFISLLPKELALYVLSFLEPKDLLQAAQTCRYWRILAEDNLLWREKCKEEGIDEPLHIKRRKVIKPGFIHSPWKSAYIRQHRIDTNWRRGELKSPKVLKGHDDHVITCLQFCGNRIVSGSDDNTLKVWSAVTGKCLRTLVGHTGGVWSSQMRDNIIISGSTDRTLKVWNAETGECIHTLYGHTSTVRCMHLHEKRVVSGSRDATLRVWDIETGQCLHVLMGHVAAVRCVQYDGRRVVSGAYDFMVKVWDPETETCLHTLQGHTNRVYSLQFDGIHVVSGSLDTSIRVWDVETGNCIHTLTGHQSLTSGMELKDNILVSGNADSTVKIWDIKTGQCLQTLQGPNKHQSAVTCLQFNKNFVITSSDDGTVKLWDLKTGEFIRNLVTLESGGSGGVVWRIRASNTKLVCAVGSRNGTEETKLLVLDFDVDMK
Described as above.

Assay [4] addresses T1, Flag-tagged β-TrCP1 (Fbw1a). Described as above.
Assay [5] has as its target T2, Flag-tagged β-TrCP2 (Fbw1b). The description is as above.
The target of the next assay is T5, Cul1 (endogenous) (human, UniProt Q13616 1-776).
T5 construct: Human by the cell lines used; also called Cul1 subunit
T5 sequence (Q13616 whole entry): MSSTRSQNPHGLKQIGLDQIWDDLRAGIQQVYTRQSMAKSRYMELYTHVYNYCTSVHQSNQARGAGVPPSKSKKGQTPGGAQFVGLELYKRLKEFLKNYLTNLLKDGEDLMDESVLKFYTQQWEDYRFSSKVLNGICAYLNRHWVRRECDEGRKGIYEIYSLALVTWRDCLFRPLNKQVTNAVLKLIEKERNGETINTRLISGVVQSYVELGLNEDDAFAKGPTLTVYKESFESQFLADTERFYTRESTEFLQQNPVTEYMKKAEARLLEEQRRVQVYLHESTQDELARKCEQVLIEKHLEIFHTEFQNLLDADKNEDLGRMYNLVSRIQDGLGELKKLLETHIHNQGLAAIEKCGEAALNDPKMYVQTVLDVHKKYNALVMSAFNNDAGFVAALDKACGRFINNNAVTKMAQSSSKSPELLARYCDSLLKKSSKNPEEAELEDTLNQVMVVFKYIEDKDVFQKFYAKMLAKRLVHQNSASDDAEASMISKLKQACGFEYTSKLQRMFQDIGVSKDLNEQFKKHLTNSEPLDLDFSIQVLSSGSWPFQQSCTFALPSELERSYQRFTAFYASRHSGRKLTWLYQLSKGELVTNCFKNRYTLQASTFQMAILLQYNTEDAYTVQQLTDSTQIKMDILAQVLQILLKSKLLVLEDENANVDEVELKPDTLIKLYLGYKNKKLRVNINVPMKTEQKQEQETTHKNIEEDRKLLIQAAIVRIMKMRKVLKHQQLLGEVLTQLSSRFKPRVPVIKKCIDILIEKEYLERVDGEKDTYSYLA
Description: Flag-tagged Cdc25A immunocomplexes blotted for Cul1.

The target in the next assay is T6, Skp1 (endogenous) (human, UniProt P63208 2-163).
T6 construct: Human by the cell lines used
T6 sequence (P63208 2-163 limits assumed): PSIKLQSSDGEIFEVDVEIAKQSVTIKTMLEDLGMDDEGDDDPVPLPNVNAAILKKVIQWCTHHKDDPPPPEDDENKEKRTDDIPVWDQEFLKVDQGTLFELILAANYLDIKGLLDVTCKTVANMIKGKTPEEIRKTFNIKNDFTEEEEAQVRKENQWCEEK
Description: Flag-tagged Cdc25A immunocomplexes blotted for Skp1.

A further assay has as its target T7, β-TrCP1 (endogenous) (human, UniProt Q9Y297 1-605).
T7 construct: also called beta-TrCP
T7 sequence: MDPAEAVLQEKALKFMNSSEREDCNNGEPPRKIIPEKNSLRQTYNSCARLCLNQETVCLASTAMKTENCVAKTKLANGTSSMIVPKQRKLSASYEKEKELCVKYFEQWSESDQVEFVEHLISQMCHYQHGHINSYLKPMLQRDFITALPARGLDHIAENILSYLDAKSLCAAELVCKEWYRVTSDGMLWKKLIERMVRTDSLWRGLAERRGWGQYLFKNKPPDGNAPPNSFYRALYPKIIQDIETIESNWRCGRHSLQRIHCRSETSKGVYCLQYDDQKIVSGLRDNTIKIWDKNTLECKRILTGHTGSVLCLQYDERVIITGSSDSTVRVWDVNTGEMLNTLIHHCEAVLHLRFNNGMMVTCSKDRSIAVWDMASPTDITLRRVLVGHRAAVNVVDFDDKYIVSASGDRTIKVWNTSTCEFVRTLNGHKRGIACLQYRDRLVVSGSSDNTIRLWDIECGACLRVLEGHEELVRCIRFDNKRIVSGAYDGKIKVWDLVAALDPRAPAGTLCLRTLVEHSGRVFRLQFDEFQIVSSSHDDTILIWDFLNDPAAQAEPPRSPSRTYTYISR
Kind of assay: Flag-tagged Cdc25A immunocomplexes blotted for β-TrCP1.

In assay [6] the target is T1, Flag-tagged β-TrCP1 (Fbw1a). Kind of assay: co-expression in HeLa cells, anti-Flag β-TrCP1 immunocomplexes blotted for Cdc25A.

B1: Cdc25A (endogenous, HeLa cells) (enzyme)
chain: MELGPSPAPRRLLFACSPPPASQPVVKALFGASAAGGLSPVTNLTVTMDQLQGLGSDYEQPLEVKNNSNLQRMGSSESTDSGFCLDSPGPLDSKENLENPMRRIHSLPQKLLGCSPALKRSHSDSLDHDIFQLIDPDENKENEAFEFKKPVRPVSRGCLHSHGLQEGKDLFTQRQNSAQLGMLSSNERDSSEPGNFIPLFTPQSPVTATLSDEDDGFVDLLDGENLKNEEETPSCMASLWTAPLVMRTTNLDNRCKLFDSPSLCSSSTRSVLKRPERSQEESPPGSTKRRKSMSGASPKESTNPEKAHETLHQSLSLASSPKGTIENILDNDPRDLIGDFSKGYLFHTVAGKHQDLKYISPEIMASVLNGKFANLIKEFVIIDCRYPYEYEGGHIKGAVNLHMEEEVEDFLLKKPIVPTDGKRVIVVFHCEFSSERGPRMCRYVRERDRLGNEYPKLHYPELYVLKGGYKEFFMKCQSYCEPPSYRPMHHEDFKEDLKKFRTKSRTWAGEKSKREMYSRLKKL
modifications: hyperphosphorylated in the form that co-precipitates with beta-TrCP (λ-phosphatase gave a faster migrating band); sites not mapped in that experiment
notes: also called cell division cycle 25A
For B1, the binding result in assay [1] and in [2] was “binds” throughout.

B2: His-Cdc25A (overexpressed wild type) (enzyme)
chain: MELGPSPAPRRLLFACSPPPASQPVVKALFGASAAGGLSPVTNLTVTMDQLQGLGSDYEQPLEVKNNSNLQRMGSSESTDSGFCLDSPGPLDSKENLENPMRRIHSLPQKLLGCSPALKRSHSDSLDHDIFQLIDPDENKENEAFEFKKPVRPVSRGCLHSHGLQEGKDLFTQRQNSAQLGMLSSNERDSSEPGNFIPLFTPQSPVTATLSDEDDGFVDLLDGENLKNEEETPSCMASLWTAPLVMRTTNLDNRCKLFDSPSLCSSSTRSVLKRPERSQEESPPGSTKRRKSMSGASPKESTNPEKAHETLHQSLSLASSPKGTIENILDNDPRDLIGDFSKGYLFHTVAGKHQDLKYISPEIMASVLNGKFANLIKEFVIIDCRYPYEYEGGHIKGAVNLHMEEEVEDFLLKKPIVPTDGKRVIVVFHCEFSSERGPRMCRYVRERDRLGNEYPKLHYPELYVLKGGYKEFFMKCQSYCEPPSYRPMHHEDFKEDLKKFRTKSRTWAGEKSKREMYSRLKKL
notes: also called overexpressed Cdc25A; not shown: His tag
As for B2, the binding result with Flag-tagged Skp2 is “no binding”; in [3], “no binding”; in assay [4], “binds”; in assay [5] it was “binds”.

B3: Flag-tagged Cdc25A DSG2x (enzyme)
chain: MELGPSPAPRRLLFACSPPPASQPVVKALFGASAAGGLSPVTNLTVTMDQLQGLGSDYEQPLEVKNNSNLQRMGSSESTDAGFCLDAPGPLDSKENLENPMRRIHSLPQKLLGCSPALKRSHSDSLDHDIFQLIDPDENKENEAFEFKKPVRPVSRGCLHSHGLQEGKDLFTQRQNSAQLGMLSSNERDSSEPGNFIPLFTPQSPVTATLSDEDDGFVDLLDGENLKNEEETPSCMASLWTAPLVMRTTNLDNRCKLFDSPSLCSSSTRSVLKRPERSQEESPPGSTKRRKSMSGASPKESTNPEKAHETLHQSLSLASSPKGTIENILDNDPRDLIGDFSKGYLFHTVAGKHQDLKYISPEIMASVLNGKFANLIKEFVIIDCRYPYEYEGGHIKGAVNLHMEEEVEDFLLKKPIVPTDGKRVIVVFHCEFSSERGPRMCRYVRERDRLGNEYPKLHYPELYVLKGGYKEFFMKCQSYCEPPSYRPMHHEDFKEDLKKFRTKSRTWAGEKSKREMYSRLKKL
notes: Point mutant of the full-length pCDNA3.1-Flag-Cdc25A construct; also called DSG2x mutated protein; DSG2x protein; not shown: Flag tag from pCDNA3.1-Flag vector
Turning to B3, the binding result with Cul1 (endogenous), with Skp1 (endogenous) and with β-TrCP1 (endogenous) was “no binding” in each case.

B4: His-tagged Cdc25A DSG2x (enzyme)
chain: MELGPSPAPRRLLFACSPPPASQPVVKALFGASAAGGLSPVTNLTVTMDQLQGLGSDYEQPLEVKNNSNLQRMGSSESTDAGFCLDAPGPLDSKENLENPMRRIHSLPQKLLGCSPALKRSHSDSLDHDIFQLIDPDENKENEAFEFKKPVRPVSRGCLHSHGLQEGKDLFTQRQNSAQLGMLSSNERDSSEPGNFIPLFTPQSPVTATLSDEDDGFVDLLDGENLKNEEETPSCMASLWTAPLVMRTTNLDNRCKLFDSPSLCSSSTRSVLKRPERSQEESPPGSTKRRKSMSGASPKESTNPEKAHETLHQSLSLASSPKGTIENILDNDPRDLIGDFSKGYLFHTVAGKHQDLKYISPEIMASVLNGKFANLIKEFVIIDCRYPYEYEGGHIKGAVNLHMEEEVEDFLLKKPIVPTDGKRVIVVFHCEFSSERGPRMCRYVRERDRLGNEYPKLHYPELYVLKGGYKEFFMKCQSYCEPPSYRPMHHEDFKEDLKKFRTKSRTWAGEKSKREMYSRLKKL
notes: not shown: His tag
On to B4, for which the binding result in [6] was “no binding”.

B5: His-tagged Cdc25A DSG3x (enzyme)
chain: MELGPSPAPRRLLFACSPPPASQPVVKALFGASAAGGLSPVTNLTVTMDQLQGLGSDYEQPLEVKNNSNLQRMGSSEATDAGFCLDAPGPLDSKENLENPMRRIHSLPQKLLGCSPALKRSHSDSLDHDIFQLIDPDENKENEAFEFKKPVRPVSRGCLHSHGLQEGKDLFTQRQNSAQLGMLSSNERDSSEPGNFIPLFTPQSPVTATLSDEDDGFVDLLDGENLKNEEETPSCMASLWTAPLVMRTTNLDNRCKLFDSPSLCSSSTRSVLKRPERSQEESPPGSTKRRKSMSGASPKESTNPEKAHETLHQSLSLASSPKGTIENILDNDPRDLIGDFSKGYLFHTVAGKHQDLKYISPEIMASVLNGKFANLIKEFVIIDCRYPYEYEGGHIKGAVNLHMEEEVEDFLLKKPIVPTDGKRVIVVFHCEFSSERGPRMCRYVRERDRLGNEYPKLHYPELYVLKGGYKEFFMKCQSYCEPPSYRPMHHEDFKEDLKKFRTKSRTWAGEKSKREMYSRLKKL
notes: not shown: His tag
For the molecule B5, the binding result in assay [6] is reported as “no binding”.
